Read-outs that look alike come from different tables or passages of the source.
Assays:
[1] = in vivo; set-up: species or system mice; conditions: CD-1 athymic nude, mouse, total radioactivity
Description: Biodistribution of ^68Ga-R3PEG4P9
Biodistribution studies were performed using CD-1 athymic nude mice bearing human melanoma xenografts on both shoulders (right: M21 cell line with high αvβ3 integrin xexpression, left: M21L cell line with low αvβ3 integrin expression). The mice were injected 6-9 MBq of ^68Ga-R3PEG4P9 (specific activity: ca. 900 GBq/μmol, corresponding to approx. 7-10 pmol of the tracer). After the specified time points (60 and 120 min, respectively), the mice were sacrificed, the organs taken out and counted in a gamma counter. For blockade, the mice were administered 200 μg (approx. 10 mg/kg) of unlabeled R3PEG4P9 10 min before tracer injection.
Data is visualized in the chart (FIG. 3).

[2] = test system: CD-1 athymic nude mice bearing human melanoma xenografts; conditions: mouse
[3] = molecular target: T1, αvβ3 integrin (Homo sapiens, UniProt P05106+P06756); assay: In vitro binding assay: displacement of 125I-echistatin on M21 human melanoma cells; conditions: log IC50
T1 construct: endogenous in cells; host or cells: M21 human melanoma cells
T1 sequence (P06756 31-889 limits assumed): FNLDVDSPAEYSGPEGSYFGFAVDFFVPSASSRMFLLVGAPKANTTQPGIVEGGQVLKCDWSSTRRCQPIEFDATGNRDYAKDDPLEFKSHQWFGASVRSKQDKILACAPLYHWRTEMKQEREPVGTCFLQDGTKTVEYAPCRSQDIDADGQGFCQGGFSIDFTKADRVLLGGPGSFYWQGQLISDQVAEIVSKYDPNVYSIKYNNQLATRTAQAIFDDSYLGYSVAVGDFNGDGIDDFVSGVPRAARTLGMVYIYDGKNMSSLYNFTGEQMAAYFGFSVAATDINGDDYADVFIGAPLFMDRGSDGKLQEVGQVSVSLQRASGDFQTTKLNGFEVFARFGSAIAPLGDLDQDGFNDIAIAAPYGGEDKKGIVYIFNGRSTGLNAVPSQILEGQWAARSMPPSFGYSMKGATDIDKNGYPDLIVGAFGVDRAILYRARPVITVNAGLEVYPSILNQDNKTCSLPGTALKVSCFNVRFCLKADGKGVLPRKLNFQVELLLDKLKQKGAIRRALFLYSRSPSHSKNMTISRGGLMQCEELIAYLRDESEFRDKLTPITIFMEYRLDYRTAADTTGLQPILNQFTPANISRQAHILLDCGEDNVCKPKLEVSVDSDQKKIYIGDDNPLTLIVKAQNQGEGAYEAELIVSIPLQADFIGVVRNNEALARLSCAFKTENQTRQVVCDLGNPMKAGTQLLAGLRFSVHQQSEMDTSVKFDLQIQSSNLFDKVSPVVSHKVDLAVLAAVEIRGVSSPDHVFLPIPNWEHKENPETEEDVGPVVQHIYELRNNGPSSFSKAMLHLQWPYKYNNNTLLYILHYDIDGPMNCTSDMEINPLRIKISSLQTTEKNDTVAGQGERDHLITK
T1 sequence (P06756 891-1048 partner limits assumed): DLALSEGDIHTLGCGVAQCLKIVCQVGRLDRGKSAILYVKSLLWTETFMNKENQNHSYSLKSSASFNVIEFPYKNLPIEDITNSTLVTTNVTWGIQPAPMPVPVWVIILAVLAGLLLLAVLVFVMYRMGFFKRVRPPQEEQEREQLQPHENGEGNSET
T1 sequence (P05106 27-788): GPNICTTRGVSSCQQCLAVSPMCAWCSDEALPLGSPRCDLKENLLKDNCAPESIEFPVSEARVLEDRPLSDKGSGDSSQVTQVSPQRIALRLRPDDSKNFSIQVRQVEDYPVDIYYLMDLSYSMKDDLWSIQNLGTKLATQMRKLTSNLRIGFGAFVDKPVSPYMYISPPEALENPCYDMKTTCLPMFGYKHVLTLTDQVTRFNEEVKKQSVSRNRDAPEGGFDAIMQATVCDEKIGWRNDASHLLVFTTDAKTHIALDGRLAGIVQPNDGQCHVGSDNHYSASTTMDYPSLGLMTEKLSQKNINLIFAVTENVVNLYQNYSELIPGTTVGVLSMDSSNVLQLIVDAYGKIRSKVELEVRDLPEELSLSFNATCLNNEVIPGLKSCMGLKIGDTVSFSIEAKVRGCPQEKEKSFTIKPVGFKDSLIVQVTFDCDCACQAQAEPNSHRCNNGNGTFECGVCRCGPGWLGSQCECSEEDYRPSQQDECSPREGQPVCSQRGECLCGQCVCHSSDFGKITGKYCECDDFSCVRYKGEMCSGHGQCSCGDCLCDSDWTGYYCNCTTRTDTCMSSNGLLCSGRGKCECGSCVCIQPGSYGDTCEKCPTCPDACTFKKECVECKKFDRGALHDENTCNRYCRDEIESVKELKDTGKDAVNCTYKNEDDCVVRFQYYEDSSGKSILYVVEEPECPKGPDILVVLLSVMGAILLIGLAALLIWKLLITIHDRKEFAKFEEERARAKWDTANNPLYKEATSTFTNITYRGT

[4] = Log P determination: octanol-water partition coefficient (1-octanol/PBS) of the labelled compound
Description: Octanol-water partition coefficients were determined by addition of ca. 50 kBq of the respective labelled compound to Eppendorf cup containing each 500 μl of 1-octanol and isotonic phosphate buffered saline (PBS). After 2 min of vigorous stirring, the phases were separated by centrifugation, 100 μl aliquots of each phase taken out and the activity contained determined with a gamma counter. Each experiment was repeated 5-8 times.

For `N=C(N)NCCC[C@@H]1NC(=O)[C@H](CCCCNC(=O)CCOCCOCCOCCOCCNC(=O)CCP(=O)(O)CN2CCN(CP(=O)(O)CCC(=O)NCCOCCOCCOCCOCCC(=O)NCCCC[C@@H]3NC(=O)[C@@H](Cc4ccccc4)NC(=O)[C@H](CC(=O)O)NC(=O)CNC(=O)[C@H](CCCNC(=N)N)NC3=O)CCN(CP(=O)(O)CCC(=O)NCCOCCOCCOCCOCCC(=O)NCCCC[C@@H]3NC(=O)[C@@H](Cc4ccccc4)NC(=O)[C@H](CC(=O)O)NC(=O)CNC(=O)[C@H](CCCNC(=N)N)NC3=O)CC2)NC(=O)[C@@H](Cc2ccccc2)NC(=O)[C@H](CC(=O)O)NC(=O)CNC1=O` (single isomer, unassigned) [68Ga-R3PEG4P9, metal not drawn], the tissue uptake at 1 h ([1]; adrenal gland, 60 min, blocked, read-out: uptake % ID/g, adrenal gland) was 0.36 %ID/g, the tissue uptake at 1 h ([1]; adrenal gland, 60 min, read-out: uptake % ID/g, adrenal gland) was 27.8 %ID/g and the tissue uptake at 2 h ([1]; adrenal gland, 120 min, read-out: uptake % ID/g, adrenal gland) was 24.2 %ID/g. For the same compound, the tissue uptake at 1 h ([1]; blood, 60 min, blocked (200 μg unlabeled R3PEG4P9 10 min before), read-out: uptake % ID/g, blood) was 0.09 %ID/g, the tissue uptake at 1 h ([1]; blood, 60 min after tracer injection, read-out: uptake % ID/g, blood) was 0.31 %ID/g and the tissue uptake at 2 h ([1]; blood, 120 min after tracer injection, read-out: uptake % ID/g, blood) was 0.16 %ID/g. For the same compound, the tissue uptake at 1 h ([1]; heart, 60 min, blocked, read-out: uptake % ID/g, heart) was 0.08 %ID/g, the tissue uptake at 1 h ([1]; heart, 60 min, read-out: uptake % ID/g, heart) was 1.29 %ID/g and the tissue uptake at 2 h ([1]; heart, 120 min, read-out: uptake % ID/g, heart) was 1.47 %ID/g. It also gave a tissue uptake at 1 h ([1]; kidneys, 60 min, blocked, read-out: uptake % ID/g, kidneys) of 1.97 %ID/g, a tissue uptake at 1 h ([1]; kidneys, 60 min, read-out: uptake % ID/g, kidneys) of 10.2 %ID/g and a tissue uptake at 2 h ([1]; kidneys, 120 min, read-out: uptake % ID/g, kidneys) of 8.63 %ID/g. It also gave a tissue uptake at 1 h ([1]; large int., 60 min, blocked, read-out: uptake % ID/g, large int.) of 0.11 %ID/g, a tissue uptake at 1 h ([1]; large int., 60 min, read-out: uptake % ID/g, large int.) of 2.44 %ID/g and a tissue uptake at 2 h ([1]; large int., 120 min, read-out: uptake % ID/g, large int.) of 2.27 %ID/g. It also gave a tissue uptake at 1 h ([1]; liver, 60 min, blocked, read-out: uptake % ID/g, liver) of 0.32 %ID/g, a tissue uptake at 1 h ([1]; liver, 60 min, read-out: uptake % ID/g, liver) of 5.18 %ID/g and a tissue uptake at 2 h ([1]; liver, 120 min, read-out: uptake % ID/g, liver) of 3.97 %ID/g. For the same compound, the tissue uptake at 1 h ([1]; lung, 60 min, blocked, read-out: uptake % ID/g, lung) was 0.54 %ID/g, the tissue uptake at 1 h ([1]; lung, 60 min, read-out: uptake % ID/g, lung) was 2.96 %ID/g and the tissue uptake at 2 h ([1]; lung, 120 min, read-out: uptake % ID/g, lung) was 2.15 %ID/g. The tissue uptake at 1 h ([1]; muscle, 60 min, blocked, read-out: uptake % ID/g, muscle) was 0.05 %ID/g, the tissue uptake at 1 h ([1]; muscle, 60 min, read-out: uptake % ID/g, muscle) was 0.95 %ID/g and the tissue uptake at 2 h ([1]; muscle, 120 min, read-out: uptake % ID/g, muscle) was 0.67 %ID/g. It also gave a tissue uptake at 1 h ([1]; pancreas, 60 min, blocked, read-out: uptake % ID/g, pancreas) of 0.07 %ID/g, a tissue uptake at 1 h ([1]; pancreas, 60 min, read-out: uptake % ID/g, pancreas) of 0.88 %ID/g and a tissue uptake at 2 h ([1]; pancreas, 120 min, read-out: uptake % ID/g, pancreas) of 0.81 %ID/g. For the same compound, the tissue uptake at 1 h ([1]; small int., 60 min, blocked, read-out: uptake % ID/g, small int.) was 0.24 %ID/g, the tissue uptake at 1 h ([1]; small int., 60 min, read-out: uptake % ID/g, small int.) was 4.92 %ID/g and the tissue uptake at 2 h ([1]; small int., 120 min, read-out: uptake % ID/g, small int.) was 3.75 %ID/g. For the same compound, the tissue uptake at 1 h ([1]; spleen, 60 min, blocked, read-out: uptake % ID/g, spleen) was 0.24 %ID/g, the tissue uptake at 1 h ([1]; spleen, 60 min, read-out: uptake % ID/g, spleen) was 3.38 %ID/g and the tissue uptake at 2 h ([1]; spleen, 120 min, read-out: uptake % ID/g, spleen) was 3.5 %ID/g. The tissue uptake at 1 h ([1]; stomach, 60 min, blocked, read-out: uptake % ID/g, stomach) was 0.17 %ID/g, the tissue uptake at 1 h ([1]; stomach, 60 min, read-out: uptake % ID/g, stomach) was 4.43 %ID/g and the tissue uptake at 2 h ([1]; stomach, 120 min, read-out: uptake % ID/g, stomach) was 3.56 %ID/g. It also gave a tissue uptake at 1 h ([1]; thyroid, 60 min, blocked, read-out: uptake % ID/g, thyroid) of 0.17 %ID/g, a tissue uptake at 1 h ([1]; thyroid, 60 min, read-out: uptake % ID/g, thyroid) of 3.27 %ID/g and a tissue uptake at 2 h ([1]; thyroid, 120 min, read-out: uptake % ID/g, thyroid) of 2.89 %ID/g. It also gave a tissue uptake at 1 h ([1]; tumor M21 (high αvβ3), 60 min, blocked, read-out: uptake % ID/g, tumor M21) of 0.62 %ID/g, a tissue uptake at 1 h ([1]; tumor M21 (high αvβ3), 60 min, read-out: uptake % ID/g, tumor M21) of 6.08 %ID/g and a tissue uptake at 2 h ([1]; tumor M21 (high αvβ3), 120 min, read-out: uptake % ID/g, tumor M21) of 4.63 %ID/g. The tissue uptake at 1 h ([1]; tumor M21L (low αvβ3), 60 min, blocked, read-out: uptake % ID/g, tumor M21L) was 0.31 %ID/g, the tissue uptake at 1 h ([1]; tumor M21L (low αvβ3), 60 min, read-out: uptake % ID/g, tumor M21L) was 1.48 %ID/g and the tissue uptake at 2 h ([1]; tumor M21L (low αvβ3), 120 min, read-out: uptake % ID/g, tumor M21L) was 1.7 %ID/g. The “fraction of the blood activity in the plasma after centrifugation” value ([2]; in vivo) was 96% and the “metabolites in tissue extracts, plasma and urine (radio-HPLC)” value ([2]; in vivo) was “no metabolites could be detected”.

For `N=C(N)NCCC[C@@H]1NC(=O)[C@H](CCCCNC(=O)CCOCCOCCOCCOCCNC(=O)CCP(=O)(O)CN2CCN(CP(=O)(O)CCC(=O)NCCOCCOCCOCCOCCC(=O)NCCCC[C@@H]3NC(=O)[C@H](Cc4ccccc4)NC(=O)[C@H](CC(=O)O)NC(=O)CNC(=O)[C@H](CCCNC(=N)N)NC3=O)CCN(CP(=O)(O)CCC(=O)NCCOCCOCCOCCOCCC(=O)NCCCC[C@@H]3NC(=O)[C@@H](Cc4ccccc4)NC(=O)[C@@H](CC(=O)O)NC(=O)CNC(=O)[C@@H](CCCNC(=N)N)NC3=O)CC2)NC(=O)[C@H](Cc2ccccc2)NC(=O)[C@H](CC(=O)O)NC(=O)CNC1=O` [Compound R3PEG4P9], the “stability in vivo (analysis of metabolites)” value [2] was “fully stable in vivo” and the IC50 [3] was 42.7 nM.

Compound `N=C(N)NCCC[C@@H]1NC(=O)[C@H](CCCCNC(=O)CCOCCOCCOCCOCCOCCOCCOCCOCCNC(=O)CCP(=O)(O)CN2CCN(CP(=O)(O)CCC(=O)NCCOCCOCCOCCOCCOCCOCCOCCOCCC(=O)NCCCC[C@@H]3NC(=O)[C@@H](Cc4ccccc4)NC(=O)[C@H](CC(=O)O)NC(=O)CNC(=O)[C@H](CCCNC(=N)N)NC3=O)CCN(CP(=O)(O)CCC(=O)NCCOCCOCCOCCOCCOCCOCCOCCOCCC(=O)NCCCC[C@@H]3NC(=O)[C@@H](Cc4ccccc4)NC(=O)[C@H](CC(=O)O)NC(=O)CNC(=O)[C@H](CCCNC(=N)N)NC3=O)CC2)NC(=O)[C@@H](Cc2ccccc2)NC(=O)[C@H](CC(=O)O)NC(=O)CNC1=O` [Ga-R3PEG8P9] has a logP [4] of -4.13 ± 0.16.

From patent US9260483B2, “Triazacyclononane-based phosphinate ligand and its use for molecular imaging” (TECHNISCHE UNIVERSITÄT MÜNCHEN, priority 2011, dated 2016)
